Reference: patent publication US20150344570A1 (published 2015)

T1: FcγRIIb extracellular domain with C-terminal His tag (human, UniProt P31994 43-217)
T1 construct: extracellular domain; also called 2b; FcgRIIb
T1 sequence (looked up): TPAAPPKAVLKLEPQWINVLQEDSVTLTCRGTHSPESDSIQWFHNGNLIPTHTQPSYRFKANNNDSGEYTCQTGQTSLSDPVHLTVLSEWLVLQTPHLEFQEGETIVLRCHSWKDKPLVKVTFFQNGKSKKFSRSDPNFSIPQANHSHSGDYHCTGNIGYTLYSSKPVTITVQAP

T2: FcγRIIb extracellular domain with C-terminal His tag (human, UniProt P31994 43-217)
T2 construct: extracellular domain; Soluble receptor used as analyte in Biacore; also called FcgRIIb
T2 sequence (looked up): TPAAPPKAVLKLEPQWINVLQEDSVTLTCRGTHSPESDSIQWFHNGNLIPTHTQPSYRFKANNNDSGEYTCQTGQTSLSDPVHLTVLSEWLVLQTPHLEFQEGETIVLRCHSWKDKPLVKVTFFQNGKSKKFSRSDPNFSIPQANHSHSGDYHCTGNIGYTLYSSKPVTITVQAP


What was measured:
[1] = biological target: T1, FcγRIIb extracellular domain with …; experiment: SPR, binding relative to GpH7-A5/GpH7-B3/GpL16-k0 = 100
[2] = biological target: T3, FcγRIIIa extracellular domain with C-terminal His tag (human, UniProt P08637 17-208); experiment: as above
T3 construct: extracellular domain; also called 3a; FcgRIIIa

[3] = biological target: T3, FcγRIIIa extracellular domain with …; experiment: SPR; ratio of He/Con_3a (FcγRIIIa) to He/Con_2b (FcγRIIb)
Experimental: The heterodimerized antibodies He Abs in which one of the H chains was introduced with an alteration were assayed for their binding activities to each activating FcγR and inhibitory FcγR according to the method described in Example 4. […] The activating FcγRs in FIGS. 26, 27, 28, and 29 are FcγRIa, FcγRIIa (R), FcγRIIa (H), and FcγRIIIa, respectively.
Analysis of interaction between objective antibody and the FcγR was carried out using Biacore T100 (GE Healthcare). HBS-EP+ (GE Healthcare) was used as the running buffer, and the measurement temperature was set to 25° C. Chips produced by immobilizing the antigen peptide by the amine coupling method to a Series S Sencor Chip CM5 (GE Healthcare), or alternatively, chips produced by allowing preliminarily biotinylated antigen peptides to interact with and immobilize onto a Series S Sensor Chip SA (certified) (GE Healthcare) were used. Antibodies of interest were captured onto an antigen peptide-immobilized chip, and allowed to interact to each FcγR diluted with running buffer. To regenerate and repeatedly use the chip, the antibodies captured on the chip were washed off by reacting 10 mM glycine-HCl, pH 1.5.

[4] = biological target: T4, FcγRIa extracellular domain with C-terminal His tag (human, UniProt P12314 16-292); experiment: SPR (Biacore), antibody captured, FcγR as analyte; binding relative to GpH7-A5/GpH7-B3/GpL16-k0 = 100
T4 construct: extracellular domain; Soluble receptor used as analyte in Biacore; also called FcgRI

[5] = biological target: T2, FcγRIIb extracellular domain with …; experiment: as above
[6] = biological target: T4, FcγRIa extracellular domain with …; experiment: ratio He/Con_1a : He/Con_2b (FcγRIa over FcγRIIb), SPR (Biacore)

T3 sequence (P08637 17-208): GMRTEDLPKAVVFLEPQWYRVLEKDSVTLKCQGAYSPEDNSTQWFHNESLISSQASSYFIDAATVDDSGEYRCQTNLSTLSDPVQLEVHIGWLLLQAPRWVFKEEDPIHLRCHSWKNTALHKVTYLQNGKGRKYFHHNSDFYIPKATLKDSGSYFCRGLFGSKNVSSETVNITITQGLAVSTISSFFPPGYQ
T4 sequence (P12314 16-292): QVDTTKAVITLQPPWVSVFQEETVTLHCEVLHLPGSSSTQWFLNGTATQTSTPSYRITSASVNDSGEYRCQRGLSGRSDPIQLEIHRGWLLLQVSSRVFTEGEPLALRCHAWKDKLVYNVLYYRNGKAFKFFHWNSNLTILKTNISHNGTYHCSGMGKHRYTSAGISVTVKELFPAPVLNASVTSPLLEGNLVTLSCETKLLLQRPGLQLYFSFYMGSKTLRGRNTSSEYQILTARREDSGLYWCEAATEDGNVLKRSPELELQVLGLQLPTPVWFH

Binder	He/Con_2b [1]	He/Con_3a [2]	He_3a/2b (IIIa/IIb) [3]	He/Con_1a [4]	He/Con_2b [5]	He_1a/2b (Ia/IIb) [6]
GpH7-A5/GpH7-B3 variant L234_05P/GpL16-k0 (antibody, human IgG1, kappa, also called He Ab) heavy 1: not shown heavy 2: not shown light: DIVMTQSPLSLPVTPGEPASISCQASESLVHSNRNTYLHWYLQKPGQSPQLLIYKVSNRFSGVPDRFSGSGSGTDFTLKISRVEAEDVGVYYCSQNTHVPPTFGQGTKVEIERTVAAPSVFIFPPSDEQLKSGTASVVCLLNNFYPREAKVQWKVDNALQSGNSQESVTEQDSKDSTYSLSSTLTLSKADYEKHKVYACEVTHQGLSSPVTKSFNRGEC	72.9 % of control	88.1 % of control	1.21	–	–	–
GpH7-A5/GpH7-B3 variant L234_07I/GpL16-k0 (antibody, human IgG1, kappa, also called He Ab) heavy 1: not shown heavy 2: not shown light: DIVMTQSPLSLPVTPGEPASISCQASESLVHSNRNTYLHWYLQKPGQSPQLLIYKVSNRFSGVPDRFSGSGSGTDFTLKISRVEAEDVGVYYCSQNTHVPPTFGQGTKVEIERTVAAPSVFIFPPSDEQLKSGTASVVCLLNNFYPREAKVQWKVDNALQSGNSQESVTEQDSKDSTYSLSSTLTLSKADYEKHKVYACEVTHQGLSSPVTKSFNRGEC	80.9 % of control	103 % of control	1.27	–	–	–
GpH7-A5/GpH7-B3 variant L234_11K/GpL16-k0 (antibody, human IgG1, kappa, also called He Ab) heavy 1: not shown heavy 2: not shown light: DIVMTQSPLSLPVTPGEPASISCQASESLVHSNRNTYLHWYLQKPGQSPQLLIYKVSNRFSGVPDRFSGSGSGTDFTLKISRVEAEDVGVYYCSQNTHVPPTFGQGTKVEIERTVAAPSVFIFPPSDEQLKSGTASVVCLLNNFYPREAKVQWKVDNALQSGNSQESVTEQDSKDSTYSLSSTLTLSKADYEKHKVYACEVTHQGLSSPVTKSFNRGEC	16.2 % of control	30.5 % of control	1.88	–	–	–
GpH7-A5/GpH7-B3 variant L234_12R/GpL16-k0 (antibody, human IgG1, kappa, also called He Ab) heavy 1: not shown heavy 2: not shown light: DIVMTQSPLSLPVTPGEPASISCQASESLVHSNRNTYLHWYLQKPGQSPQLLIYKVSNRFSGVPDRFSGSGSGTDFTLKISRVEAEDVGVYYCSQNTHVPPTFGQGTKVEIERTVAAPSVFIFPPSDEQLKSGTASVVCLLNNFYPREAKVQWKVDNALQSGNSQESVTEQDSKDSTYSLSSTLTLSKADYEKHKVYACEVTHQGLSSPVTKSFNRGEC	18.9 % of control	36.9 % of control	1.95	–	–	–
GpH7-A5/GpH7-B3 variant L234_15Y/GpL16-k0 (antibody, human IgG1, kappa, also called He Ab; GpH7-A5/GpH7-B3-01-15Y/GpL16-k0) heavy 1: not shown heavy 2: not shown light: DIVMTQSPLSLPVTPGEPASISCQASESLVHSNRNTYLHWYLQKPGQSPQLLIYKVSNRFSGVPDRFSGSGSGTDFTLKISRVEAEDVGVYYCSQNTHVPPTFGQGTKVEIERTVAAPSVFIFPPSDEQLKSGTASVVCLLNNFYPREAKVQWKVDNALQSGNSQESVTEQDSKDSTYSLSSTLTLSKADYEKHKVYACEVTHQGLSSPVTKSFNRGEC	96.3 % of control	130 % of control	1.35	–	–	–
GpH7-A5/GpH7-B3 variant L234_16H/GpL16-k0 (antibody, human IgG1, kappa, also called He Ab) heavy 1: not shown heavy 2: not shown light: DIVMTQSPLSLPVTPGEPASISCQASESLVHSNRNTYLHWYLQKPGQSPQLLIYKVSNRFSGVPDRFSGSGSGTDFTLKISRVEAEDVGVYYCSQNTHVPPTFGQGTKVEIERTVAAPSVFIFPPSDEQLKSGTASVVCLLNNFYPREAKVQWKVDNALQSGNSQESVTEQDSKDSTYSLSSTLTLSKADYEKHKVYACEVTHQGLSSPVTKSFNRGEC	59.4 % of control	79.5 % of control	1.34	–	–	–
GpH7-A5/GpH7-B3 variant L234_19Q/GpL16-k0 (antibody, human IgG1, kappa, also called He Ab) heavy 1: not shown heavy 2: not shown light: DIVMTQSPLSLPVTPGEPASISCQASESLVHSNRNTYLHWYLQKPGQSPQLLIYKVSNRFSGVPDRFSGSGSGTDFTLKISRVEAEDVGVYYCSQNTHVPPTFGQGTKVEIERTVAAPSVFIFPPSDEQLKSGTASVVCLLNNFYPREAKVQWKVDNALQSGNSQESVTEQDSKDSTYSLSSTLTLSKADYEKHKVYACEVTHQGLSSPVTKSFNRGEC	60.3 % of control	79.8 % of control	1.32	–	–	–
GpH7-A5/GpH7-B3 variant L235_01G/GpL16-k0 (antibody, human IgG1, kappa, also called He Ab) heavy 1: not shown heavy 2: not shown light: DIVMTQSPLSLPVTPGEPASISCQASESLVHSNRNTYLHWYLQKPGQSPQLLIYKVSNRFSGVPDRFSGSGSGTDFTLKISRVEAEDVGVYYCSQNTHVPPTFGQGTKVEIERTVAAPSVFIFPPSDEQLKSGTASVVCLLNNFYPREAKVQWKVDNALQSGNSQESVTEQDSKDSTYSLSSTLTLSKADYEKHKVYACEVTHQGLSSPVTKSFNRGEC	35.4 % of control	58.8 % of control	1.66	–	–	–
GpH7-A5/GpH7-B3 variant L235_03V/GpL16-k0 (antibody, human IgG1, kappa, also called He Ab) heavy 1: not shown heavy 2: not shown light: DIVMTQSPLSLPVTPGEPASISCQASESLVHSNRNTYLHWYLQKPGQSPQLLIYKVSNRFSGVPDRFSGSGSGTDFTLKISRVEAEDVGVYYCSQNTHVPPTFGQGTKVEIERTVAAPSVFIFPPSDEQLKSGTASVVCLLNNFYPREAKVQWKVDNALQSGNSQESVTEQDSKDSTYSLSSTLTLSKADYEKHKVYACEVTHQGLSSPVTKSFNRGEC	66.4 % of control	98 % of control	1.48	–	–	–
GpH7-A5/GpH7-B3 variant L235_05P/GpL16-k0 (antibody, human IgG1, kappa, also called He Ab) heavy 1: not shown heavy 2: not shown light: DIVMTQSPLSLPVTPGEPASISCQASESLVHSNRNTYLHWYLQKPGQSPQLLIYKVSNRFSGVPDRFSGSGSGTDFTLKISRVEAEDVGVYYCSQNTHVPPTFGQGTKVEIERTVAAPSVFIFPPSDEQLKSGTASVVCLLNNFYPREAKVQWKVDNALQSGNSQESVTEQDSKDSTYSLSSTLTLSKADYEKHKVYACEVTHQGLSSPVTKSFNRGEC	54.7 % of control	71.1 % of control	1.3	–	–	–
GpH7-A5/GpH7-B3 variant L235_11K/GpL16-k0 (antibody, human IgG1, kappa, also called He Ab) heavy 1: not shown heavy 2: not shown light: DIVMTQSPLSLPVTPGEPASISCQASESLVHSNRNTYLHWYLQKPGQSPQLLIYKVSNRFSGVPDRFSGSGSGTDFTLKISRVEAEDVGVYYCSQNTHVPPTFGQGTKVEIERTVAAPSVFIFPPSDEQLKSGTASVVCLLNNFYPREAKVQWKVDNALQSGNSQESVTEQDSKDSTYSLSSTLTLSKADYEKHKVYACEVTHQGLSSPVTKSFNRGEC	6.3 % of control	38.1 % of control	6.06	–	–	–
GpH7-A5/GpH7-B3 variant L235_13S/GpL16-k0 (antibody, human IgG1, kappa, also called He Ab) heavy 1: not shown heavy 2: not shown light: DIVMTQSPLSLPVTPGEPASISCQASESLVHSNRNTYLHWYLQKPGQSPQLLIYKVSNRFSGVPDRFSGSGSGTDFTLKISRVEAEDVGVYYCSQNTHVPPTFGQGTKVEIERTVAAPSVFIFPPSDEQLKSGTASVVCLLNNFYPREAKVQWKVDNALQSGNSQESVTEQDSKDSTYSLSSTLTLSKADYEKHKVYACEVTHQGLSSPVTKSFNRGEC	48.2 % of control	69.6 % of control	1.44	–	–	–
GpH7-A5/GpH7-B3 variant L235_14T/GpL16-k0 (antibody, human IgG1, kappa, also called He Ab) heavy 1: not shown heavy 2: not shown light: DIVMTQSPLSLPVTPGEPASISCQASESLVHSNRNTYLHWYLQKPGQSPQLLIYKVSNRFSGVPDRFSGSGSGTDFTLKISRVEAEDVGVYYCSQNTHVPPTFGQGTKVEIERTVAAPSVFIFPPSDEQLKSGTASVVCLLNNFYPREAKVQWKVDNALQSGNSQESVTEQDSKDSTYSLSSTLTLSKADYEKHKVYACEVTHQGLSSPVTKSFNRGEC	46.8 % of control	75.8 % of control	1.62	–	–	–
GpH7-A5/GpH7-B3 variant L235_18N/GpL16-k0 (antibody, human IgG1, kappa, also called He Ab) heavy 1: not shown heavy 2: not shown light: DIVMTQSPLSLPVTPGEPASISCQASESLVHSNRNTYLHWYLQKPGQSPQLLIYKVSNRFSGVPDRFSGSGSGTDFTLKISRVEAEDVGVYYCSQNTHVPPTFGQGTKVEIERTVAAPSVFIFPPSDEQLKSGTASVVCLLNNFYPREAKVQWKVDNALQSGNSQESVTEQDSKDSTYSLSSTLTLSKADYEKHKVYACEVTHQGLSSPVTKSFNRGEC	54.9 % of control	67.3 % of control	1.23	–	–	–
GpH7-A5/GpH7-B3 variant L235_19Q/GpL16-k0 (antibody, human IgG1, kappa, also called He Ab) heavy 1: not shown heavy 2: not shown light: DIVMTQSPLSLPVTPGEPASISCQASESLVHSNRNTYLHWYLQKPGQSPQLLIYKVSNRFSGVPDRFSGSGSGTDFTLKISRVEAEDVGVYYCSQNTHVPPTFGQGTKVEIERTVAAPSVFIFPPSDEQLKSGTASVVCLLNNFYPREAKVQWKVDNALQSGNSQESVTEQDSKDSTYSLSSTLTLSKADYEKHKVYACEVTHQGLSSPVTKSFNRGEC	42.6 % of control	70.5 % of control	1.65	–	–	–
GpH7-A5/GpH7-B3 variant K326_02A/GpL16-k0 (antibody, human IgG1, kappa, Heterodimerized IgG1, mutation in the GpH7-B3 chain only; also called He Ab) heavy 1: not shown heavy 2: not shown light: DIVMTQSPLSLPVTPGEPASISCQASESLVHSNRNTYLHWYLQKPGQSPQLLIYKVSNRFSGVPDRFSGSGSGTDFTLKISRVEAEDVGVYYCSQNTHVPPTFGQGTKVEIERTVAAPSVFIFPPSDEQLKSGTASVVCLLNNFYPREAKVQWKVDNALQSGNSQESVTEQDSKDSTYSLSSTLTLSKADYEKHKVYACEVTHQGLSSPVTKSFNRGEC	–	–	–	102 control = 100	139 control = 100	0.73
